Article PMC5538822, “RNA-dependent stabilization of SUV39H1 at constitutive heterochromatin”

What was measured:
[1] = biological target: T1, MBP-SUV39H1 1-106 (NTE + chromodomain) (Homo sapiens) (UniProt O43463); test: EMSA; settings: 20 mM Tris-HCl pH 7.4, 50 mM NaCl, 10% glycerol, ~4 U RNase inhibitor, room temperature 10 min; native gel 0.5X TBE at 25 C; filter binding on nitrocellulose …
T1 sequence: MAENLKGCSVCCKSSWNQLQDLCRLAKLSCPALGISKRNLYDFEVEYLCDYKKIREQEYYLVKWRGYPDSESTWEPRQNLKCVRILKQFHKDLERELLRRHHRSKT

[2] = biological target: T2, MBP-SUV39H1 1-106 (NTE + chromodomain) (Homo sapiens, UniProt O43463 1-106); test: EMSA; 20 mM Tris-HCl pH 7.4, 50 mM NaCl, 10% glycerol, ~4 U RNase inhibitor, room temperature 10 min; native gel 0.5X TBE at 25 C; filter binding on nitrocellulose in the same buffer; settings: protein: recombinant, tags: MBP, label: 32P
T2 sequence: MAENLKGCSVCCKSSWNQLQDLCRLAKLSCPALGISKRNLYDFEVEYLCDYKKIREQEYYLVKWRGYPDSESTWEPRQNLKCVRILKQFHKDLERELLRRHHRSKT

[3] = biological target: T3, MBP-SUV39H1 107-412 (pre-SET, SET, post-SET) (Homo sapiens, UniProt O43463 107-412); test: as above; settings: protein: recombinant; tags: MBP; label: 32P
T3 sequence: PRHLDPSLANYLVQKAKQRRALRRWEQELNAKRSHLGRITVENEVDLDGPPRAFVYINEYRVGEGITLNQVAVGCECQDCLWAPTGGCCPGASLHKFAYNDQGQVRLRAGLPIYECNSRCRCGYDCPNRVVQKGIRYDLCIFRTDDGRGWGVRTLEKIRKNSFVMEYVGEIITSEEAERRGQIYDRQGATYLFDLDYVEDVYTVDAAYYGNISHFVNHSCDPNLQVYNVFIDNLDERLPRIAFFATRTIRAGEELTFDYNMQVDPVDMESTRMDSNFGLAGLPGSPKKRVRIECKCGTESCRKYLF

[4] = biological target: T4, MBP-SUV39H1 42-106 (chromodomain) (Homo sapiens, UniProt O43463 42-106); test: as above; settings: protein: recombinant; tags: MBP; label: 32P
T4 sequence: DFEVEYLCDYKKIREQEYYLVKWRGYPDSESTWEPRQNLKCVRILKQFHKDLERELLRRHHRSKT

[5] = biological target: T5, MBP-SUV39H1 1-41 (N-terminal extension) (Homo sapiens, UniProt O43463 1-41); test: as above; settings: protein: recombinant; tags: MBP; label: 32P
T5 chain: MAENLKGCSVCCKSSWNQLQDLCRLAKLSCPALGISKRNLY

beta-actin ssRNA (180mer)
Kd [1]: 32 nM

alpha-satellite ssRNA (180mer)
Kd [1]: 23 nM

B1: antisense 19mer ssRNA (ssRNA)
RNA: GGGAUCAGUGGUUCCCAUA
Kd [2]: 366 ± 22 nM

B2: dsRNA MBP 1-50 (dsRNA)
RNA 1: ACCAAAAUCGAAGAAGGUAAACUGGUAAUCUGGAUUAACGGCGAUAAAGG
RNA 2: CCUUUAUCGCCGUUAAUCCAGAUUACCAGUUUACCUUCUUCGAUUUUGGU
binding result ([2]; blunt): binds

B3: ssRNA1, sense MBP 1-50 (ssRNA)
RNA: ACCAAAAUCGAAGAAGGUAAACUGGUAAUCUGGAUUAACGGCGAUAAAGG
Kd [2]: 61 ± 5 nM

B4: ssRNA2, antisense MBP 1-50 (ssRNA)
RNA: CCUUUAUCGCCGUUAAUCCAGAUUACCAGUUUACCUUCUUCGAUUUUGGU
Kd [2]: 64 ± 3 nM

B5: sense 19mer ssRNA (ssRNA)
RNA: AUAUGGGAACCACUGAUCC
binding result [3]: no binding
Kd [4]: 2310 ± 170 nM
Kd [5]: 51000 ± 30000 nM
Kd [2]: 145 ± 9 nM

B6: ssDNA, sense MBP 1-50 (ssDNA)
DNA: ACCAAAATCGAAGAAGGTAAACTGGTAATCTGGATTAACGGCGATAAAGG
binding result [2]: binds

B7: dsDNA MBP 1-50 (dsDNA)
DNA 1: ACCAAAATCGAAGAAGGTAAACTGGTAATCTGGATTAACGGCGATAAAGG
DNA 2: CCTTTATCGCCGTTAATCCAGATTACCAGTTTACCTTCTTCGATTTTGGT
Kd ([2]; blunt): 185 ± 17 nM
